Data taken from the RNAGym collection of RNA variant scans (doi:10.7554/elife.90254).

B1: LINE1-mini (parent)
chain: GGCAGAGCUCAACACAGCGUGGCAAAGUGGCUGUGGCUAGACUGCC

Variants of: B1
Test: self-cleavage, relative activity (ratio to wild type); higher = more cleavage; in vitro, sequencing; the parent is a self-cleaving ribozyme

Variant	self-cleavage
GGCAGACCUCAACACAGCGUGGCAAAGUGGCUGUGGCUAGACCGCC [G7C U43C]	0.33
AGCAGAGCUCAACACAGCGUCGCAAAGUGGCUGUGGCUAGACUGCC [G1A G21C]	2.09
GGCAGAGCUCAGCACAGCGUGGCAAAGUGACUGUGGCUAGACUGCC [A12G G30A]	0.03
GGCAGCGCUCAACACAGCGUGGCAAAGUGGCUGUCGCUAGACUGCC [A6C G35C]	0.05
GGAAGAGCUCAACACAGCGUGGCUAAGUGGCUGUGGCUAGACUGCC [C3A A24U]	0.51
GGCAGAGCUCAACACAGCGUGUCAGAGUGGCUGUGGCUAGACUGCC [G22U A25G]	1.01
GGCAGAGCUCAACACAGCGUGGCAAAGUGGUUGUUGCUAGACUGCC [C31U G35U]	0.07
GGCAGAGCUCAACACAGCGUGGCAAGGUGGCUGUGGCUAGACCGCC [A26G U43C]	0.05
GACAGAGCUCAACACAGCGUGGCAAAGUGGCUGUGGCUAGACUACC [G2A G44A]	0.49
GGCAGAGCUCAACACAGCGUGGCAAAGUGACUGUGGCUAAACUGCC [G30A G40A]	0.19
GGCAGAGCUCAACACAGCGUGGAAAAGUGGCUGUGUCUAGACUGCC [C23A G36U]	0.06
GGCAGAGCUCAACACAGCGUAGCAAAGUGGCUGUGGCUUGACUGCC [G21A A39U]	1.82
GGCAGAGCUCAACACUGCGUGGCAAAGUGGCUGUGGCUAGACUGGC [A16U C45G]	0.13
GGCAGAGCUCAACACAGCGUGGCAAAGUGGCUGCUGCUAGACUGCC [U34C G35U]	0.18
GGCAGACCACAACACAGCGUGGCAAAGUGGCUGUGGCUAGACUGCC [G7C U9A]	0.09
GGCAGAGCUCAACACAGAGUGGCAAAGUGGCUGUCGCUAGACUGCC [C18A G35C]	0.05
GGCAGAGCUCAACGCAGCGUGGCAAAGUGGCCGUGGCUAGACUGCC [A14G U32C]	0.08
GGAAGAGCUCAACACAGCGUGGCAAAGUGGCUGUGACUAGACUGCC [C3A G36A]	1.1
GGCAGAGGUUAACACAGCGUGGCAAAGUGGCUGUGGCUAGACUGCC [C8G C10U]	0.06

Variant	self-cleavage
GGCAGAUCUCAACACCGCGUGGCAAAGUGGCUGUGGCUAGACUGCC [G7U A16C]	0.09
GGCAGAGCUCAACACAGCGUUGAAAAGUGGCUGUGGCUAGACUGCC [G21U C23A]	1.24
GGCAGAGCUCAACACAGCCUGGCAAAGUGGCUGUGGCUAGACUGCA [G19C C46A]	0.52
GGCAGAGCUCAACACAGGGUGGGAAAGUGGCUGUGGCUAGACUGCC [C18G C23G]	0.66
GACAGAGCUCAACACAGCUUGGCAAAGUGGCUGUGGCUAGACUGCC [G2A G19U]	0.72
GGCAGAGCUCAACACAGCGUGGCAAGGUGGCUGUGGCUAGACUGAC [A26G C45A]	1.06
GGCAGAGCUCGACACAGCGUGGCAAGGUGGCUGUGGCUAGACUGCC [A11G A26G]	0.04
GGCAGGGCUCAACACGGCGUGGCAAAGUGGCUGUGGCUAGACUGCC [A6G A16G]	0.12
GGCAGAGCGCAACACAGUGUGGCAAAGUGGCUGUGGCUAGACUGCC [U9G C18U]	0.09
GGCAGAGCUCAACACAGAGUGGCAAAGUGGCUGUGGCUGGACUGCC [C18A A39G]	0.05
GGCAGAGCUCAACACAGAGUGGCAAAGUGGCUGUGGCUAGACUACC [C18A G44A]	0.2
GGCAGAGCUCAACACUGCGUGGCAAAGUGGCUGCGGCUAGACUGCC [A16U U34C]	0.07
GGCAGAGCUCAACACAGCGUGGCAAAGUGGCGUUGGCUAGACUGCC [U32G G33U]	0.07
GGCAGAGCCCAACACAGCGUGGCAAAGUGGCUGUGGCUACACUGCC [U9C G40C]	0.03
GGCAGAGCUCAACACAACGUGGCAAAGCGGCUGUGGCUAGACUGCC [G17A U28C]	0.97
GGCCGAGCUCAACACAGCGUGGCAAAGUGGUUGUGGCUAGACUGCC [A4C C31U]	0.06
GGCAGAGCUCAACACAGCGUGGCAAAGUGGCCGUGGCUAGACUGAC [U32C C45A]	0.2
GGCAGAGCUCAAUACAGCGGGGCAAAGUGGCUGUGGCUAGACUGCC [C13U U20G]	0.1
GGCAGAGCUCAACACAGCGUGGCAAAGUGGCUGGGGCUAGACUGCG [U34G C46G]	0.14

Variant	self-cleavage
GGCAGAGCUCAACACAGCGUGGCAUAGUGGGUGUGGCUAGACUGCC [A25U C31G]	0.1
GGCAGAGCUCAACACAGAGUGGCAAAGUGGCUGUGUCUAGACUGCC [C18A G36U]	0.07
GGCAGAGCACAACACAGCGUGACAAAGUGGCUGUGGCUAGACUGCC [U9A G22A]	0.14
GGCAGAGCUCAACACAGAGUGGCAAAGUGGCUGUGGCUAGACAGCC [C18A U43A]	0.08
GGCAGAGCUCAACACAGCGUGGCAAAGUGGCUGUGGAAAGACUGCC [C37A U38A]	0.04
GGCAGAGCUCAUCACAGCGUGGCGAAGUGGCUGUGGCUAGACUGCC [A12U A24G]	0.39
GGCAGAGCUCAACACAGCGUGGCAAAGUGGAUGAGGCUAGACUGCC [C31A U34A]	0.05
GGCAGAGCUCAGCACAGCGUGGCAAAGUGGCUGUGGGUAGACUGCC [A12G C37G]	0.02
GGCGGAGCUCAACACAGCGUGGCAAAGUGGCUGUAGCUAGACUGCC [A4G G35A]	0.15
GGCAGAGUUCAACACAGCGUGGCAAAGUGGCUGUGGCUAGACCGCC [C8U U43C]	0.16
GGCCAAGCUCAACACAGCGUGGCAAAGUGGCUGUGGCUAGACUGCC [A4C G5A]	0.12
GCCAGAGCCCAACACAGCGUGGCAAAGUGGCUGUGGCUAGACUGCC [G2C U9C]	0.03
UGCAGAUCUCAACACAGCGUGGCAAAGUGGCUGUGGCUAGACUGCC [G1U G7U]	0.06
GGCAGAGCUCAACACAGCGUGGCAUAGUGGCUGUUGCUAGACUGCC [A25U G35U]	0.16
GGCAGAGCUCAACACAGCGUGGCAAAGUGGCAUUGGCUAGACUGCC [U32A G33U]	0.07
GGCAGAGCUGAACACAGCUUGGCAAAGUGGCUGUGGCUAGACUGCC [C10G G19U]	0.11
GGCAGAGAUCAACACAGCGUGGCAAAGUGGCUGUGGGUAGACUGCC [C8A C37G]	0.1
GGCAGAGCUCAACACAGCGAGGCAAAGUGGCUGUGGCGAGACUGCC [U20A U38G]	0.02
